Measurements from patent US20080075726A1 (VACCINEX, published 2008).
Changes are numbered by the printed parent chain.

B1: mAb 246 (antibody, V domains shown)
VH: QVTLKESGPTLVKPTQTLTLTCTFSGFSLSTSGVAVGWIRQPPGKALEWLALIFWDDDKHYSPSLKSRLTITKDTSKNQVVLTMTNMDPVDTATYYCARSYDDYLYYALDYWGQGTLVTVSS
VL: EIVLTQSPGTLSLSPGERATLSCRASQTIDSSYLAWYQQKPGQAPRLLVYGASSRATGIPDRFSDSGSGTDFTLTISRLEPEDFAVYYCQQYAKSPITFGQGTKLE
B2: mAb 248 (antibody, V domains shown)
VH: B1 VH
VL: DIVMTQSPSSLSASVGDRVTITCRASQTISSYLNWYQQKPGKPPKLLIYAASSLESGVPSRFSGSGSGTEFTLTISSLQPEDLATYYCQQANSFPLTFGGGTKLE
B3: mAb 297 (antibody, V domains shown)
VH: B1 VH
VL: DIQMTQSPSSLSASVGDSVTITCRASQTISDFLNWYQQKPGKAPKLLIHASSNLQSGVPSRFSGSGSGTDFTLTISDLQPEDFATYSCQQTYSTLGTFGQGTRLE
B4: mAb 1337 (antibody, V domains shown)
VH: QVTLKESGPTLVKPTQTLTLTCSFSGFSLSTSGVGVGWVRQPPGKALEWLAFIWWDDDKYYSPSLESRLTITKDTSKNQVVLTMTNMDPVDTATYYCARSADDYLYYSFDTWGQGTLVT
VL: DIQMTQSPSSLSAFVGDGVTMTCWASQSINDYLNWYHQRPGEAPELLVFAASNLQIGVPSRFRGSGSETYFTLTINSLQPEDSGTYFCQHGHSFPLTFGGGTKLEI
B5: mAb 1340 (antibody, V domains shown)
VH: B4 VH
VL: B4 VL with H90N, H92W
B6: mAb 239 (antibody, V domains shown)
VH: QVTLKESGPTLVKPTQTLTLTCIFSGFSFKTSGVSVGWIRQPPGKALEWLALIYWDDDKRYSPSLKNRLTITRDTSKNQVVLTMTNMDPVDTATYYCARSYDDYLYYALDYWGQGTLVT
VL: DVVMTQSPSSVSASVGDRVTITCRASQDIDNFLAWYQQKPGKAPNLLIYKVSSLRSGVPSRFSGSRSGTDFTLTITSLQPEDFATYFCQQTRRFPLTFGPGTKLE
B7: mAb 247 (antibody, V domains shown)
VH: B1 VH
VL: B6 VL
B8: mAb 285 (antibody, V domains shown)
VH: QVTLKESGPALVKPTQTLTLTCTFSGFSLSTSGMCVSWIRQPPGKALEWLTLIYWDDDKRYSPSLETRLTITKDTSKNQVVLTMTNMDPVDTATYYCARSYDDYLYYALDYWGQGTLVT
VL: B6 VL
B9: mAb 237 (antibody, V domains shown)
VH: B6 VH with I23T, F29L, K30R, I39F, I53V, K59R, S62N
VL: B6 VL
B10: mAb 241 (antibody, V domains shown)
VH: B4 VH with W54F, A101Y, S108A, F109L, T111Y
VL: B6 VL
B11: mAb 201 (antibody, V domains shown)
VH: B8 VH with S30T, T51A, S62N, E66R, T67S, Y101H
VL: DIQMTQSPSSLSAFVGDGVTMTCWASQSINDYLNWYHQRPGEAPELLVFAASNLQIGVPSRFRGSGSETYFTLTINSLQPEDSGTYFCQQTSSFPLTFGGGTKLE
B12: mAb 286 (antibody, V domains shown)
VH: B8 VH
VL: B2 VL
B13: mAb 192 (antibody, V domains shown)
VH: B8 VH with S30T, T51A, S62N, E66R, T67S
VL: DIVMTQSPSSLSASVGDRVTITCRASRNINTYLNWYQQKPGKAPKLLVHSASTLQSGAPSRFSGSGYGTEFTLIISSLQPDDFATYYCQQGYNTLTFGPGTKLE
B14: mAb 123 (antibody, V domains shown)
VH: B8 VH with S30T, T51A, S62N, E66R, T67S, Y101H
VL: DIVMTQSPATLSVTPGDRVSLSCRASQSISDYLHWYQQKSHESPRLLIKSVSQSISGIPSRFSGSGSGSDFTLSINSVEPEDVGVYYCQNGHSFPLTFGAGTKLELK
B15: mAb 184 (antibody, V domains shown)
VH: B8 VH with S30T, T51A, S62N, E66R, T67S
VL: DIQMTQSPSSLSASVGDSVTVTCRASQKMRTYLHWYQQKPGKAPKLLIYDVSFLQNGVPSRFSGRASGTEFTLTISDLQPEDFATYYCQQSYDTPLTFGQGTKLEIK
B16: mAb 265 (antibody, V domains shown)
VH: B8 VH with S30T, T51A, S62N, E66R, T67S
VL: DIQMTQSPSTLSASVGDRVTITCRASQSMSDYLNWYQQKPGKAPKLLIYSASGLQSGVPSRFSGSGSGTDFTLTIINLQPEDVAAYYCQQSFSFPLTFGPGTKLEIK
B17: mAb 185 (antibody, V domains shown)
VH: B8 VH with S30T, T51A, S62N, E66R, T67S
VL: DVVMTQSPSSVSASVGDRVTITCRASQVIDSWLHWYQREPGKAPKILIYAATTLQRGVPSRFSGSGFGTEFTLTISGLQPEDFATYFCQQGYSFPITFGQGTRLEIK
B18: mAb 182 (antibody, V domains shown)
VH: B8 VH with S30T, T51A, S62N, E66R, T67S
VL: DIQMTQSPSSLSASVGDRVTITCRASQSISTYLNWYQQKLGKAPKLLIYAASSLQSGVPSRFSGSGSGTDFTLTISSLQPEDLATYYCQQSYRPLTFGGGTKLEIK
B19: mAb 190 (antibody, V domains shown)
VH: B8 VH with S30T, T51A, S62N, E66R, T67S
VL: B3 VL
B20: mAb 183 (antibody, V domains shown)
VH: B8 VH with S30T, T51A, S62N, E66R, T67S
VL: DIQMTQSPSSLSASVGDSVTITCRASQSISIYLNWYQQKPGKAPDLLIYATSTLQSGVPSRFSGRGSGTHFTLTIDSLQPEDFATYYCQQTYRNLFTFGQGTKLE
B21: mAb 193 (antibody, V domains shown)
VH: B8 VH with S30T, T51A, S62N, E66R, T67S
VL: EIVLTQSPSSLSASVGDRVTISCRASQNIIDYLNWYQHKPGKVPTLLISGTSTLQSGVPSRFSGSGFGTDFTLTISSVQPEDVATYYCQQGHGTPLSFGGGTKLEIK
B22: mAb 202 (antibody, V domains shown)
VH: B8 VH with S30T, T51A, S62N, E66R, T67S, Y101H
VL: B3 VL
B23: mAb 181 (antibody, V domains shown)
VH: B8 VH with S30T, T51A, S62N, E66R, T67S
VL: B2 VL
B24: mAb 179 (antibody, V domains shown)
VH: B8 VH with S30T, T51A, S62N, E66R, T67S
VL: B14 VL
B25: mAb 205 (antibody, V domains shown)
VH: B8 VH with S30T, T51A, S62N, E66R, T67S, Y101H
VL: B21 VL
B26: mAb 197 (antibody, V domains shown)
VH: B8 VH with S30T, T51A, S62N, E66R, T67S, Y101H
VL: B17 VL
B27: mAb 242 (antibody, V domains shown)
VH: B4 VH with W54F, A101Y, S108A, F109L, T111Y
VL: B2 VL

Key:
recombinant human IL-6 [1] = target: T1, recombinant human IL-6 (human, UniProt P05231 30-212, limits assumed); assay: competition ELISA, rhIL-6 in solution against captured IL-6
T1 construct: also called rhIL6; human recombinant IL-6
Method: (§1) Briefly, plates were coated with 2 μg/ml of mBE4 capture antibody in coating buffer, 100 μl per well. The plates were incubated overnight. Next, the plates were washed 3 times and tapped dry. The plates were then blocked with 200 μl per well of Assay Diluent or 10% FBS in PBS and incubated for 2 hours. […] The reaction was left at RT for 3-4 hours. […] Next, the plates were washed 3 times and tapped dry. […] The plates were incubated for 1-2 hours. The plates were washed 3 times and tapped dry. […] The plates were incubated at RT for 2 hours. (Therefore, any unbound mAb at this point will be measured by ELISA). Plates were then washed 5 times and tapped dry. 100 μl of detection Ab goat anti-human IgG F(ab)′2-HRP (Jackson lab) was added at 1:20,000 dilutions or 1:40,000 dilutions (depending on lot) and the plates were incubated for 1-2 hours. The plates were washed 7 times and tapped dry. Next, the Developer Substrate (equal parts of each reagent in the kit) was pre-mixed and allowed to warm to room temperature before use. Then 100 μl of Developer was added to each well. The plates were allowed to develop for 15 minutes un-sealed in a drawer in the dark. Finally, developing was stopped by adding 100 μl of 2N H₂SO₄ to each well and plates were read as Endpoint at 450 nm-[…].

recombinant human IL-6 [2] = target: T1, recombinant human IL-6; assay: competition ELISA, rhIL-6 in solution against captured IL-6 (Affinity (nM) by IC50 ELISA)
Method: as §1
IC50 ELISA was performed as described above. Affinity analysis by Biacore was performed according to manufacturer protocols using HBS-EP buffer (Biacore AB).

| Binder | IC50 (recombinant human IL-6 [1]) | IC50 (recombinant human IL-6 [2]) |
| --- | --- | --- |
| B1 | 5.5 nM |  |
| B2 | 2 nM |  |
| B3 | 11.5 nM |  |
| B4 | 0.047 nM | 0.047 nM |
| B5 | 0.028 nM | 0.028 nM |
| B6 | 9.6 nM |  |
| B7 | 4 nM |  |
| B8 | 2.5 nM |  |
| B9 | 6.5 nM |  |
| B10 | 6.5 nM |  |
| B11 | 2 nM |  |
| B12 | 2.5 nM |  |
| B13 | 2.3 nM |  |
| B14 | 1.1 nM |  |
| B15 | 2.4 nM |  |
| B16 | 6.2 nM |  |
| B17 | 1.5 nM |  |
| B18 | 6.3 nM |  |
| B19 | 1.9 nM |  |
| B20 | 1.75 nM |  |
| B21 | 2.7 nM |  |
| B22 | 2.4 nM |  |
| B23 | 12.9 nM |  |
| B24 | 0.85 to 4.2 nM |  |
| B25 | 7.4 nM |  |
| B26 | 3.7 nM |  |
| B27 | 2.2 nM |  |
